Reference: patent US20190300620A1

Target: CD46 on target cells (LNCAP-C4-B2 and other prostate cancer cell lines) (UniProt P15529)
Experiment: cell-based or functional assay

Chain of UniProt P15529 (P15529 35-392 limits assumed): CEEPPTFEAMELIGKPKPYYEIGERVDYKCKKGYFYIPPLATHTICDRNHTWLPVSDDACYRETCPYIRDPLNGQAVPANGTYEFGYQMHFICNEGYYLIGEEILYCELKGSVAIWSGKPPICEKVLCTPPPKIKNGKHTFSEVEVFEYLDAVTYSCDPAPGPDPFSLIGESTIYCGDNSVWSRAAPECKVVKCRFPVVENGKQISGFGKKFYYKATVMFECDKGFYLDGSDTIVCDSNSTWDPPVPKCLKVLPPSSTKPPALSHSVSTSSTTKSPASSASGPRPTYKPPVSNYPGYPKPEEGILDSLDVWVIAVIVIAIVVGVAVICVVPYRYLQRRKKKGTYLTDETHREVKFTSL

anti-CD46 CAR (YS5FL-scFv in a second generation lentivirus CAR containing CD28 and CD3zeta), on transduced human T cells
killing rate of LNCAP-C4-B2 target cells (real time cytotoxicity assay, impedance, effector:target 10:1): > 99%
